Common to all, as to assay: cell_activity
For one series, the system named is XTN TALEN 1 left monomer. As to conditions: Cel-1 assay, value for the pair.
Series [1] deals with XTN TALEN 1 right monomer. As to conditions: Cel-1 assay, value for the pair.
Series [2] concerns XTN TALEN 3 right monomer. As to conditions: Cel-1 assay, value for the pair.
The subject of a further series is XTN TALEN 3 left monomer. The settings on record: Cel-1 assay, value for the pair.
The subject of series [3] is XTN TALEN 2 right monomer. The settings on record: Cel-1 assay, value for the pair; most active.
The next series has as its system XTN TALEN 2 left monomer. As to conditions: Cel-1 assay, value for the pair; most active.

In the series with XTN TALEN 1 left monomer, “TATGCGGACCTTTATCTA (double strand) [TALEN 1 left half-site]” had an activity of 5%.
On to “AGTGCAGGGAGCCACA (double strand) [TALEN 1 right half-site]”, for which the activity in series [1] was 5%.
Consider “GTCATTGAGCAAATGCA (double strand) [TALEN 3 right half-site]”, for which the activity in series [2] is 3%.
Take “TCTGCCAACCTCACAT (double strand) [TALEN 3 left half-site]”: in the series with XTN TALEN 3 left monomer, the activity was found to be 3%.
In the case of “TTCCTAAGTGCAGGGA (double strand) [TALEN 2 right half-site]”, the activity in series [3] came out at 9%.
Regarding “TGCAGTATGCGGACCTT (double strand) [TALEN 2 left half-site]”, the activity in the series on XTN TALEN 2 left monomer turned out to be 9%.
